Results as given in publication PMC5531466, “Biochemical characterization of a new nicotinamidase from an unclassified bacterium thriving in a geothermal water stream microbial mat community” (PLoS ONE, 2017).

Columns and labels:
(UniProt H5SPS2) = target: T1, (UniProt H5SPS2); assay: HPLC nicotinamidase assay, Morrison equation; also thermal shift (Tm […] °C); type: biochemical
T1 construct: full-length, N-terminal 6-histidine tag (pET28a)

CCOC(=O)c1cccnc1 = assay: purified protein; details: Fe2+ active site; C155 thiolate attack at C7 of ethylnicotinate
COC(=O)c1cccnc1 = assay: purified protein; details: Fe2+ active site
Cc1cncc(C(N)=O)c1 = assay: purified protein; details: Fe2+ active site
NC(=O)c1cnccn1 = assay: purified protein; details: Fe2+ active site

T1 sequence (H5SPS2 1-220): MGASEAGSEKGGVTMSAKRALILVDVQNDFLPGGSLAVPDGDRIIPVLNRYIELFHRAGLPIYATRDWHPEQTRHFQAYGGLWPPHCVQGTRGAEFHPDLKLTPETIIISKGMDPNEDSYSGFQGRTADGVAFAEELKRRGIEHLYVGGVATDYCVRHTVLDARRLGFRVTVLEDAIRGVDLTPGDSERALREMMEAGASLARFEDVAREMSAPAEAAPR

O=Cc1cccnc1 [nicotinaldehyde]
Ki ((UniProt H5SPS2)): 180 ± 1 nM

UbNic (nicotinamidase) (uncultured Acidobacteriota bacterium)
Km (CCOC(=O)c1cccnc1): 1.31 ± 0.03 mM | kcat (CCOC(=O)c1cccnc1): 3.7 ± 0.3 s⁻¹ | kcat/Km (CCOC(=O)c1cccnc1): 2800 M⁻¹ s⁻¹ | Km (COC(=O)c1cccnc1): 1.08 ± 0.11 mM | kcat (COC(=O)c1cccnc1): 54.5 ± 0.8 s⁻¹ | kcat/Km (COC(=O)c1cccnc1): 50500 M⁻¹ s⁻¹ | Km (Cc1cncc(C(N)=O)c1): 1.09 ± 0.20 mM | kcat (Cc1cncc(C(N)=O)c1): 43.7 ± 0.3 s⁻¹ | kcat/Km (Cc1cncc(C(N)=O)c1): 40100 M⁻¹ s⁻¹ | Km (NC(=O)c1cnccn1): 0.33 ± 0.05 mM | kcat (NC(=O)c1cnccn1): 18.7 ± 0.3 s⁻¹ | kcat/Km (NC(=O)c1cnccn1): 56700 M⁻¹ s⁻¹
